Data reported in the supplement of paper PMC11502859.
Values joined by “and” are separate entries in the source; they are usually repeats but may differ in a detail not shown here. Equal values may be shown once.

Test system: HEK293T
Test: median enrichment of reporter reads in eGFP-reduced (low/intermediate) vs eGFP-high sorted cells (eGFP-extension fusion abundance) (ratio); higher = stronger loss of eGFP-fusion protein abundance (more destabilising extension)
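Note: lentiviral eGFP-IRES-mCherry reporter pool sorted by FACS 96 h post-transduction, gated on mCherry-high cells, Illumina read counts normalized per million, median across four biological replicates.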

Question: For “CCSSVKEQQTWHWNRVENPGFCTWRGKMPSCFLINPNFIYSSGTLWG [OPALIN]”, which median enrichment is on record?
Answer: The median enrichment was 5.49.

Question: How did the median enrichment turn out when CCTKDLLF [GNA13] was run?
Answer: The median enrichment was 1.47.

Question: Which median enrichment does the source give for “CDAQTASSATKRPENSRFTTFLSHVEAFPFNRGPSSEPRPISAIFFS [LMBR1]” here?
Answer: The median enrichment was 12.

Question: For “CDARQFLDLGGLKRPPSCLLSFSVSSFLLVFFILFSFHQPSCILALQRDRDRSSAQGFSLPLFIMGGGYHPPSQSCEESGTSF [NOTCH3]”, which median enrichment is on record?
Answer: The median enrichment was 9.5.

Question: Which median enrichment does the source give for “CDPCKWDSPPVHEAWLLQYLLVEELYSKMKRKNKQTNKKKHKKRKNTFLYLTMFFEYVFFL [RBFOX2]” here?
Answer: Its median enrichment is 0.264.

Question: “CDPPRPPEWPPPHHSTMGLDARVIVVQNRRENRPATHKGQG [TMEM151A]” was tested. Which median enrichment did it give?
Answer: Its median enrichment is 4.51.

Question: CDQLSCTNFEV [IFNGR1] was tested. Which median enrichment did it give?
Answer: The median enrichment was 0.207.

Question: Which median enrichment does the source give for CEA [NPSR1] here?
Answer: Its median enrichment is 10.3.

Question: CEGQTPEEPLQ [CXCL12] was tested. Which median enrichment did it give?
Answer: The median enrichment was 0.136.

Question: With CEGYYPFYYGTMPCVKNNHPLAYSH [DPY19L2] as the substance, how does the median enrichment read?
Answer: The median enrichment was 8.92.

Question: Which median enrichment does the source give for CELLPCPSFPPCTT [FEZF2] here?
Answer: The median enrichment was 0.681.

Question: How did the median enrichment turn out when CEQ [PRF1] was run?
Answer: The median enrichment was 12.2.

Question: For “CEQQMELWERGEQWGYRESSSALPLGQPHLPAVSPGHFSTSQVEVLQGPAATCIRRTSFSA [SPATA19]”, which median enrichment is on record?
Answer: The median enrichment was 2.8.

Question: For CERGLSSSLPAPSSPRPSSLCAW [HOXC10], which median enrichment is on record?
Answer: Its median enrichment is 2.77.

Question: With CESVHQTKCGKNTKKT [GYPA] as the substance, how does the median enrichment read?
Answer: The median enrichment was 0.413.

Question: For CETHNFISHSDHRLLNIADRNRSLQGV [TAS2R13], which median enrichment is on record?
Answer: Its median enrichment is 2.12.

Question: “CFSRGQGGEGASGGVGAGGTVPREPGGSHTRTAPVSSGHCNPVGLFLQHSRSLPSIATLQTPG [SFRP1]” was tested. Which median enrichment did it give?
Answer: Its median enrichment is 4.21.

Question: Which median enrichment does the source give for CFSVNLSLLVERSGACPSSQTSDL [LRRC46] here?
Answer: Its median enrichment is 5.72.

Question: For CFWNRVKLSQRRRKSPGICTS [PPP1R14C], which median enrichment is on record?
Answer: Its median enrichment is 13.7.

Question: CGA [FOSL1] was tested. Which median enrichment did it give?
Answer: Its median enrichment is 0.817.

Question: How did the median enrichment turn out when CGAARRSR [METAP1D] was run?
Answer: The median enrichment was 1.33.

Question: With CGACYGLNCAPK [ZNF81] as the substance, how does the median enrichment read?
Answer: Its median enrichment is 1.07.

Question: With CGAEHHPSH [PPM1J] as the substance, how does the median enrichment read?
Answer: The median enrichment was 0.355.

Question: For CGALRPS [PNKD], which median enrichment is on record?
Answer: The median enrichment was 0.539.

Question: For “CGCAPAGSSKDRPARSPSNPTFFWKGGVLQGQAGASSRLLGANPSMYIAFLSCLRAADSQRCARGERCAVGSRA [TNFRSF1A]”, which median enrichment is on record?
Answer: Its median enrichment is 13.5.

Question: With CGCQLGRKRETRP [CCND2] as the substance, how does the median enrichment read?
Answer: The median enrichment was 0.808.

Question: For “CGEPLAWPTNLGFTIQTADWMKLCTFLSLQLPYVESVIFICTFFAT [TAF7L]”, which median enrichment is on record?
Answer: Its median enrichment is 10.8.

Question: How did the median enrichment turn out when “CGGLPRRAKMAEMILKITEEREDQPEFPLDICVFLFFYFVLFFLLLLLP [SOX9]” was run?
Answer: The median enrichment was 9.11.

Question: For “CGGLVSELGLCRESLFCVSHPLPDPSLCLYSLNSVEFN [MCM3]”, which median enrichment is on record?
Answer: The median enrichment was 13.4.

Question: With CGHLSGPGALMEAIGTPELPSHS [ODF2] as the substance, how does the median enrichment read?
Answer: Its median enrichment is 0.872.

Question: How did the median enrichment turn out when CGIII [SRGAP2] was run?
Answer: The median enrichment was 1.59.

Question: Which median enrichment does the source give for CGILGDSPREELGC [CEP85] here?
Answer: Its median enrichment is 0.759.

Question: How did the median enrichment turn out when “CGILRWLACWAWGLLTDSMEQGWAVCAHAQHALRGGGGGRGFLMSVQELKVSGVLPRICPTPHDKTELCNKQYQFILAVGFCF [WDR6]” was run?
Answer: The median enrichment was 9.47.

Question: Which median enrichment does the source give for CGIQRERGSGRGGPEWGRLEGYRPAWMT [SNCG] here?
Answer: Its median enrichment is 3.44.

Question: With CGLGRFS [IMMT] as the substance, how does the median enrichment read?
Answer: The median enrichment was 0.695.

Question: With “CGLGWAGARRAAGWPLGGQDGTVGTEVGGRGPSGLN [TNFRSF8]” as the substance, how does the median enrichment read?
Answer: Its median enrichment is 5.21.

Question: With “CGLLPLGPLTLSGWWTTKYNPVYNLKIYFTFVLLYLFIKG [SMAD4]” as the substance, how does the median enrichment read?
Answer: Its median enrichment is 2.65.

Question: Which median enrichment does the source give for CGLPSGGGAMWLGS [SMYD1] here?
Answer: Its median enrichment is 0.906.

Question: Which median enrichment does the source give for “CGPDCSLHSAHSICSHPPSLTQPPLSGILPQMRSERQ [ABHD6]” here?
Answer: Its median enrichment is 0.625.

Question: How did the median enrichment turn out when CGPEASWVSLGPQKLIKE [PCP2] was run?
Answer: The median enrichment was 0.292.

Question: With CGPGGSGRGWPHPHDHCPGGGGLLLLSF [BIK] as the substance, how does the median enrichment read?
Answer: Its median enrichment is 10.6.

Question: How did the median enrichment turn out when “CGRCTRQEEGDWGPWPGTVLLRGRRRLQQSHGSPRGEGCLSRFLRPRRSDFWARGHARAVQSWPGPPVGLLCSLPSLPPDAGP [FRMD8]” was run?
Answer: The median enrichment was 5.53.

Question: How did the median enrichment turn out when CGRPELSRPPPALLGAGVLDPWHLPGPLT [LLGL1] was run?
Answer: The median enrichment was 2.46.

Question: Which median enrichment does the source give for CGRTSALSDRTLRAMLPCHP [MRGPRX3] here?
Answer: The median enrichment was 6.32.

Question: With CGSCGCPCCVALYDCC [NDUFB10] as the substance, how does the median enrichment read?
Answer: The median enrichment was 4.77.

Question: Which median enrichment does the source give for “CGSLRTTASLLLTSVATEAERQSDTSTGAPGEMGPA [PEX26]” here?
Answer: Its median enrichment is 0.412.

Question: Which median enrichment does the source give for CGSRPGRPFARRRGMGERT [ARHGEF1] here?
Answer: Its median enrichment is 7.51.

Question: With CGVSPGLMVCLL [APOBEC3F] as the substance, how does the median enrichment read?
Answer: Its median enrichment is 12.2.

Question: With “CGWNQGQPALRASVLLRGAVCGEGLSWQGKHLRVTLTLGPLLFLKRLLATGKKNDLATLEETSAKEDVLASLSYFCSVVDLHI [POLR1D]” as the substance, how does the median enrichment read?
Answer: Its median enrichment is 8.09.

Question: Which median enrichment does the source give for “CGWPRAVRTMKPGQRPGASPAALPTRHPPASPLGAGAHPQHPHLLINISTPGCST [COPE]” here?
Answer: The median enrichment was 5.98.

Question: For CHLRNI [MLLT10], which median enrichment is on record?
Answer: The median enrichment was 1.38.

Question: Which median enrichment does the source give for CHRGKRRKSC [CLDN1] here?
Answer: Its median enrichment is 0.437.

Question: For CIFFYQEG [PTEN], which median enrichment is on record?
Answer: The median enrichment was 6.73 and 8.49.

Question: With CITKCLYCLK [EFCAB1] as the substance, how does the median enrichment read?
Answer: Its median enrichment is 7.35.

Question: Which median enrichment does the source give for “CIYTAKKNYECMEFFKKKYNALLQRTLGKKPYVKVMTVK [ZNF140]” here?
Answer: The median enrichment was 22.2.

Question: Which median enrichment does the source give for CKKKKKKALAFSCLFC [PCDH17] here?
Answer: Its median enrichment is 46.4.

Question: Which median enrichment does the source give for CLERW [LCOR] here?
Answer: Its median enrichment is 1.17.

Question: How did the median enrichment turn out when CLFCPHIFCFLGRMAEAWWLPPRSGTD [NR1H3] was run?
Answer: The median enrichment was 12.1.

Question: “CLGKAGHKNLHEQYFFLNRMFYYSSQVLECLHTII [FAM24A]” was tested. Which median enrichment did it give?
Answer: Its median enrichment is 4.34.

Question: With CLGPGRATGSSQAAARMLISKRCWSLPS [ZBTB39] as the substance, how does the median enrichment read?
Answer: Its median enrichment is 30.1.

Question: With “CLGVKAFHGHPCTGYLLVMLQNVSPTLCPSLALLPQSP [TEX35]” as the substance, how does the median enrichment read?
Answer: Its median enrichment is 11.2.

Question: For CLHW [RIMKLB], which median enrichment is on record?
Answer: Its median enrichment is 3.73.

Question: With CLL [ACSBG2] as the substance, how does the median enrichment read?
Answer: The median enrichment was 7.26.

Question: With CLQGSKLQR [OR7A5] as the substance, how does the median enrichment read?
Answer: Its median enrichment is 3.17.

Question: Which median enrichment does the source give for “CLSGRANPENEDWKKEKKKNTSKVSSEIVLHLLYSLEDFHYVLTTLKCVNS [FOXP1]” here?
Answer: Its median enrichment is 9.44.

Question: Which median enrichment does the source give for “CLSLPSSWDYSHTPPHLDNFVFLVETGFHYVGQAGLKLLSSGDPSASASQNAGITSVSHYTWFFFPLFANSHGVFWHHFQHYF [RBP1]” here?
Answer: The median enrichment was 8.27.

Question: With CLSTVLFS [SUDS3] as the substance, how does the median enrichment read?
Answer: The median enrichment was 5.55.

Question: “CMNEWVCWVGEGPGEGSGTEGMPGSLLPTASTDQQGLGQGGHPGGRGRLPPCLPAGGPRRRAGRVHVCGCPGDPGCLPCLPRP [TMEM91]” was tested. Which median enrichment did it give?
Answer: Its median enrichment is 4.17.

Question: With “CNDKSRSKEIVGPKGKEGKSAPRLGPGTHTPPDHLGNSRALRSRMLTKSNIQSLVNQDAVSPSVWQSVALAAGKLKADFHSYV [RNF150]” as the substance, how does the median enrichment read?
Answer: Its median enrichment is 4.3.

Question: For “CNHLTRTIGAPVASAHCLSLEKWRNKCYIYLCV [FAM149A]”, which median enrichment is on record?
Answer: The median enrichment was 6.79.

Question: For CNTM [STAP1], which median enrichment is on record?
Answer: The median enrichment was 0.724.

Question: With CPADTLPPPAPSTLSWAPPYLNL [NGF] as the substance, how does the median enrichment read?
Answer: Its median enrichment is 0.552.

Question: For CPAVGMAGLPGQTR [SLC25A10], which median enrichment is on record?
Answer: Its median enrichment is 0.543.

Question: For “CPCSRVSQGHFAATAAFPEIKQPGAVASELRGAGGRARTLGLGHGALSLKATFLTYSLYITQRP [CTNS]”, which median enrichment is on record?
Answer: The median enrichment was 3.76.

Question: How did the median enrichment turn out when “CPDHGQGLPPCAPQLSPSKCVLRASLFFTAAATFPHCLRCREGQVPASTGISDKPRAQPTRGSSLHAHTGYGDGGLQVSSARG [SSNA1]” was run?
Answer: The median enrichment was 7.23.

Question: Which median enrichment does the source give for CPLNAANSASRTPNNSA [OR2AT4] here?
Answer: The median enrichment was 0.496.

Question: For “CPLSATHVVPSLPSFHLDVPPSPTSAPLLPRLDLKPELPLNLEYATYNMQAAKHPFCTRRLEWNCHVQ [PRR20A]”, which median enrichment is on record?
Answer: The median enrichment was 5.57.

Question: With CPQPGY [B3GNT7] as the substance, how does the median enrichment read?
Answer: The median enrichment was 0.431.

Question: Which median enrichment does the source give for “CPSGPPLPLGQGNQLLRDFSCLEGAVIAPPHCPTVLLGL [FBXW4]” here?
Answer: Its median enrichment is 12.6.

Question: With “CPVPARQKEQCQPHQDRWGFESALIWVCLGAPA [SLC37A3]” as the substance, how does the median enrichment read?
Answer: The median enrichment was 5.61.

Question: With CQFKEKKM [PHTF2] as the substance, how does the median enrichment read?
Answer: The median enrichment was 0.408.

Question: “CQKHKMMQCGPPCTFCNVIAVNGKTIALLKTHL [MARCH11]” was tested. Which median enrichment did it give?
Answer: Its median enrichment is 12.3.

Question: With “CQLLHILGPCLFSQDRLLKAEEPVLGAPSQTPKTCFHVPRSLLTSPNKGP [PSENEN]” as the substance, how does the median enrichment read?
Answer: The median enrichment was 26.4.
